Laboratory results as given in patent CN106117361A (UNIV SUN YAT SEN, dated 2016).

Target: T1, CD3-His蛋白(MP-5)
T1 construct: Immunogen and panning antigen; also called CD3蛋白
Assay: BLI (Octet RED96) off-rate screening, sdAb-SASA from expression medium captured on BSA-coated biosensor, CD3 at 100 nM in solution, 30°C, 1:1 Langmuir model

koff: 1.43e-05 s⁻¹
B1: A30322 抗CD3单域抗体 (sdAb) (VHH)
VHH: EVQLVECGGGLVQAGGSLRLSCAASGRTFDTMGWFRQAPGKEREFVAAVRWSSGNTYYGNTVKGRFTISRDTATNTVYLEMNSLKHEDTAVYYCAARLAGRGAADHWGQGTQVTVSS
notes: Llama-derived sdAb; Tested as crude sdAb-SASA protein in E. coli expression medium / culture supernatant (FASEBA format), not purified; also called sdAb-SASA蛋白; not shown: SASA fusion partner from the pFASEBA vector (sdAb-SASA protein in expression medium)
